Each block holds one binder with its values, some of them ahead of it. Non-standard residues stand in square brackets, D forms with d. 1Nal = N[C@@H](Cc1cccc2ccccc12)C(=O)O; Nle = CCCC[C@H](N)C(=O)O; Aib = CC(C)(N)C(=O)O
Target: T1, RXFP1 receptor (UniProt Q9HBX9 1-757, limits assumed)
T1 sequence (looked up): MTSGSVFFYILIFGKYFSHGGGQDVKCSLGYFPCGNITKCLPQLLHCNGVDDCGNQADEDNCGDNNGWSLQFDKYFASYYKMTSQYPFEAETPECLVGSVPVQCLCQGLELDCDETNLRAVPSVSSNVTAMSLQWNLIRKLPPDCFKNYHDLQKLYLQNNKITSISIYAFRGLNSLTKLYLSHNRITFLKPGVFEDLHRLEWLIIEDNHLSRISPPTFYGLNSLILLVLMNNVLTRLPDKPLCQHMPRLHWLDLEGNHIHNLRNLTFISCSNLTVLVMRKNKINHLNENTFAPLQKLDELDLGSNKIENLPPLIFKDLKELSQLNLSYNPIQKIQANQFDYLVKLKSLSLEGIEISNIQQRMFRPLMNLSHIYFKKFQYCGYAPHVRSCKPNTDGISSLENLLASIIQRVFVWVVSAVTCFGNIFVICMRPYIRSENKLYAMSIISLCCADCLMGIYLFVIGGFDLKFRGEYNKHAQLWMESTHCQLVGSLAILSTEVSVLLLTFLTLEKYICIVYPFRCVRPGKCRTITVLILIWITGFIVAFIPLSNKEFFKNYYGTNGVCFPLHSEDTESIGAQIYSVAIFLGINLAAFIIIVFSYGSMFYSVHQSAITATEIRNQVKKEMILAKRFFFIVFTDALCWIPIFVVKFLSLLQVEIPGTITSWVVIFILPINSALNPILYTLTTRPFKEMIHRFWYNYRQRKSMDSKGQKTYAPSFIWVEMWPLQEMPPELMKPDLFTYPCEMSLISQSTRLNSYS
Assay: cell-based or functional assay

B2: SEQ ID NO: 37 (peptide)
peptide: Ac-LEGREKVRAQI[Aib][Aib]EG[Nle]ST[1Nal]SKR-NH2
SMILES: CCCC[C@H](NC(=O)CNC(=O)[C@H](CCC(=O)O)NC(=O)C(C)(C)NC(=O)C(C)(C)NC(=O)[C@@H](NC(=O)[C@H](CCC(N)=O)NC(=O)[C@H](C)NC(=O)[C@H](CCCNC(=N)N)NC(=O)[C@@H](NC(=O)[C@H](CCCCN)NC(=O)[C@H](CCC(=O)O)NC(=O)[C@H](CCCNC(=N)N)NC(=O)CNC(=O)[C@H](CCC(=O)O)NC(=O)[C@H](CC(C)C)NC(C)=O)C(C)C)[C@@H](C)CC)C(=O)N[C@@H](CO)C(=O)N[C@H](C(=O)N[C@@H](Cc1cccc2ccccc12)C(=O)N[C@@H](CO)C(=O)N[C@@H](CCCCN)C(=O)N[C@@H](CCCNC(=N)N)C(N)=O)[C@@H](C)O
cAMP assay in OVCAR 5 cells EC50: 52.4 nM
cAMP assay in OVCAR 5 cells Emax: 104%

B3: SEQ ID NO: 40 (peptide)
peptide: Ac-LEGREKVRAQI[Aib][Aib]EGMSTWSKR-NH2
SMILES: CC[C@H](C)[C@H](NC(=O)[C@H](CCC(N)=O)NC(=O)[C@H](C)NC(=O)[C@H](CCCNC(=N)N)NC(=O)[C@@H](NC(=O)[C@H](CCCCN)NC(=O)[C@H](CCC(=O)O)NC(=O)[C@H](CCCNC(=N)N)NC(=O)CNC(=O)[C@H](CCC(=O)O)NC(=O)[C@H](CC(C)C)NC(C)=O)C(C)C)C(=O)NC(C)(C)C(=O)NC(C)(C)C(=O)N[C@@H](CCC(=O)O)C(=O)NCC(=O)N[C@@H](CCSC)C(=O)N[C@@H](CO)C(=O)N[C@H](C(=O)N[C@@H](Cc1c[nH]c2ccccc12)C(=O)N[C@@H](CO)C(=O)N[C@@H](CCCCN)C(=O)N[C@@H](CCCNC(=N)N)C(N)=O)[C@@H](C)O
cAMP assay in OVCAR 5 cells EC50: 31.9 nM
cAMP assay in OVCAR 5 cells Emax: 103%

B4: SEQ ID NO: 38 (peptide)
peptide: Ac-LEGREKVRAQI[Aib][Aib]EGMSKWSKR-NH2
SMILES: CC[C@H](C)[C@H](NC(=O)[C@H](CCC(N)=O)NC(=O)[C@H](C)NC(=O)[C@H](CCCNC(=N)N)NC(=O)[C@@H](NC(=O)[C@H](CCCCN)NC(=O)[C@H](CCC(=O)O)NC(=O)[C@H](CCCNC(=N)N)NC(=O)CNC(=O)[C@H](CCC(=O)O)NC(=O)[C@H](CC(C)C)NC(C)=O)C(C)C)C(=O)NC(C)(C)C(=O)NC(C)(C)C(=O)N[C@@H](CCC(=O)O)C(=O)NCC(=O)N[C@@H](CCSC)C(=O)N[C@@H](CO)C(=O)N[C@@H](CCCCN)C(=O)N[C@@H](Cc1c[nH]c2ccccc12)C(=O)N[C@@H](CO)C(=O)N[C@@H](CCCCN)C(=O)N[C@@H](CCCNC(=N)N)C(N)=O
cAMP assay in OVCAR 5 cells EC50: 10.7 nM
cAMP assay in OVCAR 5 cells Emax: 102%

B5: SEQ ID NO: 41 (peptide)
peptide: Ac-LEGREKVRAQI[Aib][Aib]EGMSTWS[Aib]R-NH2
SMILES: CC[C@H](C)[C@H](NC(=O)[C@H](CCC(N)=O)NC(=O)[C@H](C)NC(=O)[C@H](CCCNC(=N)N)NC(=O)[C@@H](NC(=O)[C@H](CCCCN)NC(=O)[C@H](CCC(=O)O)NC(=O)[C@H](CCCNC(=N)N)NC(=O)CNC(=O)[C@H](CCC(=O)O)NC(=O)[C@H](CC(C)C)NC(C)=O)C(C)C)C(=O)NC(C)(C)C(=O)NC(C)(C)C(=O)N[C@@H](CCC(=O)O)C(=O)NCC(=O)N[C@@H](CCSC)C(=O)N[C@@H](CO)C(=O)N[C@H](C(=O)N[C@@H](Cc1c[nH]c2ccccc12)C(=O)N[C@@H](CO)C(=O)NC(C)(C)C(=O)N[C@@H](CCCNC(=N)N)C(N)=O)[C@@H](C)O
cAMP assay in OVCAR 5 cells EC50: 45 nM
cAMP assay in OVCAR 5 cells Emax: 106%

B6: SEQ ID NO: 36 (peptide)
peptide: Ac-LEGREKVRAQI[Aib][Aib]EG[Nle]SK[1Nal]SKR-NH2
SMILES: CCCC[C@H](NC(=O)CNC(=O)[C@H](CCC(=O)O)NC(=O)C(C)(C)NC(=O)C(C)(C)NC(=O)[C@@H](NC(=O)[C@H](CCC(N)=O)NC(=O)[C@H](C)NC(=O)[C@H](CCCNC(=N)N)NC(=O)[C@@H](NC(=O)[C@H](CCCCN)NC(=O)[C@H](CCC(=O)O)NC(=O)[C@H](CCCNC(=N)N)NC(=O)CNC(=O)[C@H](CCC(=O)O)NC(=O)[C@H](CC(C)C)NC(C)=O)C(C)C)[C@@H](C)CC)C(=O)N[C@@H](CO)C(=O)N[C@@H](CCCCN)C(=O)N[C@@H](Cc1cccc2ccccc12)C(=O)N[C@@H](CO)C(=O)N[C@@H](CCCCN)C(=O)N[C@@H](CCCNC(=N)N)C(N)=O
cAMP assay in OVCAR 5 cells EC50: 127 nM
cAMP assay in OVCAR 5 cells Emax: 103%

Second part, the binder after the results:

cAMP assay in OVCAR 5 cells EC50: 82 nM
cAMP assay in OVCAR 5 cells Emax: 101%
B1: SEQ ID NO: 44 (peptide)
peptide: Ac-LEGREKVRAQI[Aib][Aib]EG[Nle]STWS[Aib]RK-NH2
SMILES: CCCC[C@H](NC(=O)CNC(=O)[C@H](CCC(=O)O)NC(=O)C(C)(C)NC(=O)C(C)(C)NC(=O)[C@@H](NC(=O)[C@H](CCC(N)=O)NC(=O)[C@H](C)NC(=O)[C@H](CCCNC(=N)N)NC(=O)[C@@H](NC(=O)[C@H](CCCCN)NC(=O)[C@H](CCC(=O)O)NC(=O)[C@H](CCCNC(=N)N)NC(=O)CNC(=O)[C@H](CCC(=O)O)NC(=O)[C@H](CC(C)C)NC(C)=O)C(C)C)[C@@H](C)CC)C(=O)N[C@@H](CO)C(=O)N[C@H](C(=O)N[C@@H](Cc1c[nH]c2ccccc12)C(=O)N[C@@H](CO)C(=O)NC(C)(C)C(=O)N[C@@H](CCCNC(=N)N)C(=O)N[C@@H](CCCCN)C(N)=O)[C@@H](C)O

cAMP assay in OVCAR 5 cells EC50: 190 nM
cAMP assay in OVCAR 5 cells Emax: 104%
B7: SEQ ID NO: 43 (peptide)
peptide: Ac-LEGREKVRA[Aib]I[Aib][Aib]EGMSTWS[Aib]R-NH2
SMILES: CC[C@H](C)[C@H](NC(=O)C(C)(C)NC(=O)[C@H](C)NC(=O)[C@H](CCCNC(=N)N)NC(=O)[C@@H](NC(=O)[C@H](CCCCN)NC(=O)[C@H](CCC(=O)O)NC(=O)[C@H](CCCNC(=N)N)NC(=O)CNC(=O)[C@H](CCC(=O)O)NC(=O)[C@H](CC(C)C)NC(C)=O)C(C)C)C(=O)NC(C)(C)C(=O)NC(C)(C)C(=O)N[C@@H](CCC(=O)O)C(=O)NCC(=O)N[C@@H](CCSC)C(=O)N[C@@H](CO)C(=O)N[C@H](C(=O)N[C@@H](Cc1c[nH]c2ccccc12)C(=O)N[C@@H](CO)C(=O)NC(C)(C)C(=O)N[C@@H](CCCNC(=N)N)C(N)=O)[C@@H](C)O

cAMP assay in OVCAR 5 cells EC50: 251 nM
cAMP assay in OVCAR 5 cells Emax: 104%
B8: SEQ ID NO: 42 (peptide)
peptide: Ac-LEGREKVR[Aib]QI[Aib][Aib]EGMSTWS[Aib]R-NH2
SMILES: CC[C@H](C)[C@H](NC(=O)[C@H](CCC(N)=O)NC(=O)C(C)(C)NC(=O)[C@H](CCCNC(=N)N)NC(=O)[C@@H](NC(=O)[C@H](CCCCN)NC(=O)[C@H](CCC(=O)O)NC(=O)[C@H](CCCNC(=N)N)NC(=O)CNC(=O)[C@H](CCC(=O)O)NC(=O)[C@H](CC(C)C)NC(C)=O)C(C)C)C(=O)NC(C)(C)C(=O)NC(C)(C)C(=O)N[C@@H](CCC(=O)O)C(=O)NCC(=O)N[C@@H](CCSC)C(=O)N[C@@H](CO)C(=O)N[C@H](C(=O)N[C@@H](Cc1c[nH]c2ccccc12)C(=O)N[C@@H](CO)C(=O)NC(C)(C)C(=O)N[C@@H](CCCNC(=N)N)C(N)=O)[C@@H](C)O

Source: patent publication US20190233495A1 (Sanofi, published 2019)
